Experimental data from publication PMC2156119 (The Journal of Cell Biology, 1999).
Read-outs that look alike come from different tables or passages of the source.

Assays:
[1] = target: T1, tubulin heterodimer (bovine tubulin) (bovine, UniProt Q6B856 1-445); test: pull-down
[2] = target: T1, tubulin heterodimer (bovine tubulin); test: pull-down; remark: listed apart in the source

koff [1]: 0.01 s⁻¹ | koff [2]: 0.0025 s⁻¹
B1: Op18-wt-F (oncoprotein 18/stathmin, wild type, COOH-terminal Flag epitope) (natural protein, human, UniProt P16949 1-149, looked up)
chain: MASSDIQVKELEKRASGQAFELILSPRSKESVPEFPLSPPKKKDLSLEEIQKKLEAAEERRKSHEAEVLKQLAEKREHEKEVLQKAIEENNNFSKMAEEKLTHKMEANKENREAQMAAKLERLREKDKHIEEVRKNKESKDPADETEAD
